T1: Sh1 (Glycine soja, UniProt I1MNH4 1-230+=TTT+231-511, T232A;internal_change)
T1 sequence: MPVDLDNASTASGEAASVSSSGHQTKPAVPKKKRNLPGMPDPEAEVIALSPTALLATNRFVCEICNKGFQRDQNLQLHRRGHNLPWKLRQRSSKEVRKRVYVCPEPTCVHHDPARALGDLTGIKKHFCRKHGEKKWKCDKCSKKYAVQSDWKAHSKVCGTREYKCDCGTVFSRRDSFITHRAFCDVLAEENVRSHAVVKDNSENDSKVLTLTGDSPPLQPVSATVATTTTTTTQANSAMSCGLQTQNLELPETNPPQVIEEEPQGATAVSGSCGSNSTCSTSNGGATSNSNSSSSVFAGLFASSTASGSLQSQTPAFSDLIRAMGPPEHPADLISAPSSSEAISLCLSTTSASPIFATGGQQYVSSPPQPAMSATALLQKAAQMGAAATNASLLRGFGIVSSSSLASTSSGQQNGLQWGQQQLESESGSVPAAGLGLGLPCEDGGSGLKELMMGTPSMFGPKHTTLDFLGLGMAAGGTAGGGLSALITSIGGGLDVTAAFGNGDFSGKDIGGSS

B1: SHAT1-5 promoter S2-5 (dsDNA)
DNA 1: TCATGTTATTTTTAAATTATGAAACAAAATAATATATAAAATTCTTGCTTTATCACAAGT
DNA 2: ACTTGTGATAAAGCAAGAATTTTATATATTATTTTGTTTCATAATTTAAAAATAACATGA
B2: SHAT1-5 promoter S2-6 (dsDNA)
DNA 1: CCATTTTGAGGTATTTTTTATTTCTTCGTGTGAAATCTTGTACATTCTTTGGAGATGCTG
DNA 2: CAGCATCTCCAAAGAATGTACAAGATTTCACACGAAGAAATAAAAAATACCTCAAAATGG
B3: SHAT1-5 promoter S2-12 (dsDNA)
DNA 1: AATATATAAAATTCTTGCTTTATCACAAGTCCATTTTGAGGTATTTTTTATTTCTTCGTG
DNA 2: CACGAAGAAATAAAAAATACCTCAAAATGGACTTGTGATAAAGCAAGAATTTTATATATT
B4: SHAT1-5 promoter S2-11 (dsDNA)
DNA 1: TTTTAAAATAAAAAAAAAAACAAATAGATATCATGTTATTTTTAAATTATGAAACAAAAT
DNA 2: ATTTTGTTTCATAATTTAAAAATAACATGATATCTATTTGTTTTTTTTTTTATTTTAAAA

What follows are binders tested against T1, Sh1 (assay: EMSA).

Binding result, binds:
B1, B2, B3, B4

Reference: publication PMC11365945
